In one test the target is cell-surface KDR (human) (UniProt P35968). Description: cell-based or functional assay.
Test [1] has as its target KDR-alkaline phosphatase (AP) soluble fusion protein (human) (UniProt P35968). As to the kind of experiment: BIAcore SPR, KDR immobilized. In general terms: SPR reads the build-up and loss of mass on a sensor chip optically.
Test [2] has the same target. Description: competitive blocking ELISA: antibody pre-incubated with KDR-AP, then binding of KDR-AP to immobilised VEGF165, A405. On the technique in general: An ELISA detects its analyte on a solid surface through an enzyme-linked reagent.

As usually defined, the Kd is the equilibrium constant for the complex coming apart. A low value points to a tighter complex. The koff is a measure of how fast the partners let go of each other. A higher koff goes with a short-lived complex. Broadly, the kon is a measure of how fast the partners come together. A higher kon goes with faster complex formation.

Chain of KDR-alkaline phosphatase (AP) soluble fusion protein (human) (P35968 20-764): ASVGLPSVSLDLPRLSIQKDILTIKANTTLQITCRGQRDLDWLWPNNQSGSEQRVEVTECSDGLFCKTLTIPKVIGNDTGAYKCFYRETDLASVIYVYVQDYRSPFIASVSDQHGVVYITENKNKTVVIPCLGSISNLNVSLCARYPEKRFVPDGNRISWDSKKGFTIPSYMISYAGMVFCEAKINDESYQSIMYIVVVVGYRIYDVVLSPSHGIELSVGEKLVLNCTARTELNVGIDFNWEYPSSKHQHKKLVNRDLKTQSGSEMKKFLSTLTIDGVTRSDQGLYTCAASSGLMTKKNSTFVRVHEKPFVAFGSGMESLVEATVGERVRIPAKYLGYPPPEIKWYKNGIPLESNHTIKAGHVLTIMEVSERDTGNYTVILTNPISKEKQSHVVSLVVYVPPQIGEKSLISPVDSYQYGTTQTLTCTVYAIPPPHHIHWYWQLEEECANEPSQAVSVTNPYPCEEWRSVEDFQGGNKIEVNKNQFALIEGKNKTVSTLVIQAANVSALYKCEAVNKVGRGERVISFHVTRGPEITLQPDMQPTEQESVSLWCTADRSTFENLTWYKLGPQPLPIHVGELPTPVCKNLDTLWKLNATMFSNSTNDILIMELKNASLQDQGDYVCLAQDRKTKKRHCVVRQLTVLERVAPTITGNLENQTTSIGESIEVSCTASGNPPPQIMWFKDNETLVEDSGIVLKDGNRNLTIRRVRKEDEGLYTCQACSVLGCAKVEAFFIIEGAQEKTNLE
Chain of cell-surface KDR (human) (P35968 20-1356): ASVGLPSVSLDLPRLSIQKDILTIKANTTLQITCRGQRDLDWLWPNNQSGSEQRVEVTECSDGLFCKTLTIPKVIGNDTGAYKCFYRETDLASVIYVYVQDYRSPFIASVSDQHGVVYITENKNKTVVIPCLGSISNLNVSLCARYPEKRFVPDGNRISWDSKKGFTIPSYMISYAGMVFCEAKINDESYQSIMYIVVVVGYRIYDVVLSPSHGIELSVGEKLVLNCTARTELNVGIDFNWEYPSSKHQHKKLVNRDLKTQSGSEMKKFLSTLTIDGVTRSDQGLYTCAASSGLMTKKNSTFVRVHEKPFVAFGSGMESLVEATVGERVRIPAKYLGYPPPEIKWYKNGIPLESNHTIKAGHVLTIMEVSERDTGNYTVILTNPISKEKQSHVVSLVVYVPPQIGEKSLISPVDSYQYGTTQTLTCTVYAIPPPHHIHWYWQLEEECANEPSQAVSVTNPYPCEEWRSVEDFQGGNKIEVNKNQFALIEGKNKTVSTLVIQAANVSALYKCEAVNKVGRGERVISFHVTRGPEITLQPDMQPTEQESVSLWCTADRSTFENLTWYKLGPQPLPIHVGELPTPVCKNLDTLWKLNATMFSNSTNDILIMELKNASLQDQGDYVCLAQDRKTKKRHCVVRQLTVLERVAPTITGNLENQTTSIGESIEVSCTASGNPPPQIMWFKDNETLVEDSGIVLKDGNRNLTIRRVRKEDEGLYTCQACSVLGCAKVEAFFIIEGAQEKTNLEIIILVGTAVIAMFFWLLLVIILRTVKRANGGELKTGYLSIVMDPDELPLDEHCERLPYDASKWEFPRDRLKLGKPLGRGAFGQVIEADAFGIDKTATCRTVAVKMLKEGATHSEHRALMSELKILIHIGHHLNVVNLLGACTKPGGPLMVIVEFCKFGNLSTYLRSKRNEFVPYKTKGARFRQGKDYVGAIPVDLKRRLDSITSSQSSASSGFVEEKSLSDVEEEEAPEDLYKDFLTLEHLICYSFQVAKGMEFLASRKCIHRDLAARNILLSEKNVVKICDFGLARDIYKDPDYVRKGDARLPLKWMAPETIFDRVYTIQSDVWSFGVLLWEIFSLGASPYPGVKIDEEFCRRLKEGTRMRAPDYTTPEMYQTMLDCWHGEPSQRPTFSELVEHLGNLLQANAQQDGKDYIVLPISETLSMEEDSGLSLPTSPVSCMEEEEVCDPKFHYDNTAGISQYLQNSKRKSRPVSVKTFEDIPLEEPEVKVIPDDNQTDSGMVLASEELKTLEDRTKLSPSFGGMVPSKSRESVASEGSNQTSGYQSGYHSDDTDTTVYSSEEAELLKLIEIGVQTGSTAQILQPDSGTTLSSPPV

Take IMC-1C11 (antibody): the ED50 of inhibition of VEGF-stimulated [3H]-TdR incorporation in HUVEC in the test with cell-surface KDR (human) was found to be 1.5 nM. In test [1], this substance registered a Kd of 0.27 nM, a fold change of Kd against its Fab counterpart of 5 fold, a koff of 3.7e-05 s⁻¹ and a kon of 134000 M⁻¹ s⁻¹. The IC50 (read off the curve) in test [2] was determined as 1 nM.

The values above are taken from patent US20050234225A1.
